Tests used:
human IL-17A = target: T1, human IL-17A (human, UniProt Q16552 24-155, limits assumed); assay: ELISA (FIG. 4)
T1 sequence (looked up): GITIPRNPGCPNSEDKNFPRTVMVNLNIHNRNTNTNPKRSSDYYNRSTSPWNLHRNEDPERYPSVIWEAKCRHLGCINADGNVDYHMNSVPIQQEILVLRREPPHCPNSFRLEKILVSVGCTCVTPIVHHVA
Experimental: (§1) MaxiSorp 96-well plates (NUNC #449824, www.thermofisher.com) were coated with 2 μg/ml human IL-17A (Cell Signaling #89285F, www.cellsignal.com), human IL-17F (Cell Signaling #8906LC, www.cellsignal.com), human IL-17B (Peprotech #200-28, www.peprotech.com), human IL-17C (R&D systems #1234-IL-025/CF, www.rndsystems.com), human IL-17D ((Peprotech #200-27, www.peprotech.com), human IL-17E (R&D systems #1258-IL-025/CF, www.rndsystems.com) in 1×PBS (50 μl/well) respectively. Plates were incubated at 4° C. overnight. Coating solution was removed and plates were washed once with 200 μl/well PBST (1×PBS with 0.05% tween-20). Then 200 μl/well blocking buffer (1×PBS with 0.05% tween-20, 3% BSA) was added and incubated at room temperature for 1 hour. Blocking buffer was removed and plates were washed three times with 200 μl/well PBST (1×PBS with 0.05% tween-20). The anti-IL-25 antibodies (produced in Example 2), were diluted to 10, 3.33, 1.11, 0.37, 0.123, 0.041, 0.0137, 0.0046, 0.0015, 0.00031, 0.000102, 0.000034 μg/ml by 1×PBS and added to the plates (50 μl/well). Plates were incubated at room temperature for 2 hours. Antibodies in the wells were removed and plates were washed three times with 200 μl/well PBST (1×PBS with 0.05% tween-20) each time. Goat anti-human IgG(H&L)-HRP secondary antibody (Jackson Immuno Research #109-035-088, www.jacksonimmuno.com) was diluted 1:5000 in 1×PBS and added to each well (50 μl/well). Plates were incubated at room temperature for 1 hour. Secondary antibody was removed and plates were washed seven times with 200 μl/well PBST (1×PBS with 0.05% tween-20) each time. 50 μl/well TMB (eBioscience #85-00-4201-56, www.ebioscience.com) was added and plates were incubated at room temperature for several minutes. Then 50 μl/well 2N H₂SO₄ was added to stop the reaction. Plates were read at 450 nm.

human IL-17F = target: T2, human IL-17F (human, UniProt Q96PD4 31-163); assay: ELISA (FIG. 4)
T2 sequence (looked up): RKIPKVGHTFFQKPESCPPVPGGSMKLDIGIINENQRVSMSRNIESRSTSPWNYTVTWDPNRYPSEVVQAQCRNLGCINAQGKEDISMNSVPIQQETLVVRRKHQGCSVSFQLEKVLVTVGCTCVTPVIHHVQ
Experimental: as §1

binding result (human IL-17A): no binding
binding result (human IL-17F): no binding
B1: murine anti-IL-25 monoclonal antibody 18H3 (antibody, V domains shown)
VH: QVTLKESGPGILQPSQTLSLTCSFSGFSLSTSGMGLGWIRQPSGKGLEWLAHIWWDDVKHYKPALKSRLTISKDISSSQVFLTIASVDTADTATYYCARMGQLHYYGYDYAMDYWGQGTSVTVSS
VL: QIVLTQSPAIMSASPGEKVTISCSASSSVSYMYWYQQKPGSSPKPWIYRTSNLASGVPARFSGSGSGTSYSLTISSMEAEDAATYYCQLYHSYPPTWTFGGGTKLEIK
notes: also called parental antibody; parental murine mAb
